Unfolding free energy data for one protein are collected here from FireProtDB (doi:10.1021/bi00123a006).

The conditions of the data set: Bacillus amyloliquefaciens, 25 °C, Urea, NMR, NaCl 1 M, whole UniProt chain shown.

B1: Ribonuclease wild type, P00648 (protein)
chain: MMKMEGIALKKRLSWISVCLLVLVSAAGMLFSTAAKTETSSHKAHTEAQVINTFDGVADYLQTYHKLPDNYITKSEAQALGWVASKGNLADVAPGKSIGGDIFSNREGKLPGKSGRTWREADINYTSGFRNSDRILYSSDWLIYKTTDHYQTFTKIR
Take B1: the unfolding free energy was 8.13 kcal/mol (pH 4.4, Sodium acetate 30 mM) and 8.05 kcal/mol (pH 8.9, Tris 30 mM).
